This assay addresses T1, human recombinant tPA (human, UniProt P00750 36-562).
T1 construct: The sentence 'Human recombinant serpinE2 and tPA were purchased from R&D' is read as human for both; source: bought: R&D
The experiment in a line: SDS-stable complex seen by western blot; recombinant serpinE2 and tPA bound to each other beforehand, complex immunoprecipitated with Ab11 and Protein G, western blot with a serpinE2-specific antibody; complex band above uncomplexed serpinE2. Particulars: both partners purified.

T1 sequence (P00750 36-562): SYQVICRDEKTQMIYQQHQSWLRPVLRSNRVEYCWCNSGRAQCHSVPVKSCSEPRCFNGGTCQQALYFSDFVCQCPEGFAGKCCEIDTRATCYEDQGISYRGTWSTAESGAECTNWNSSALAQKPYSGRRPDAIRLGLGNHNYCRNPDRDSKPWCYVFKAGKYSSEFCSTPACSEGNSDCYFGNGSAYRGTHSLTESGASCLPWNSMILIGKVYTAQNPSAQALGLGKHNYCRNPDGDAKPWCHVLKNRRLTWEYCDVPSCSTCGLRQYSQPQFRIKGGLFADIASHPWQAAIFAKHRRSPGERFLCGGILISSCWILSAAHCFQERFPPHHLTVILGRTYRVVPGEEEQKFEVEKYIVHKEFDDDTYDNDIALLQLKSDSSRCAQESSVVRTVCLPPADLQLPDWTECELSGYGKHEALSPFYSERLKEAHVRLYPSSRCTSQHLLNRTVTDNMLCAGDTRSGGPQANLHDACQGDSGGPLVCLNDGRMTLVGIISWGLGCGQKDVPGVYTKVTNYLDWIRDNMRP

B1: human recombinant serpinE2 (natural protein, UniProt P07093 20-398, looked up)
chain: SHFNPLSLEELGSNTGIQVFNQIVKSRPHDNIVISPHGIASVLGMLQLGADGRTKKQLAMVMRYGVNGVGKILKKINKAIVSKKNKDIVTVANAVFVKNASEIEVPFVTRNKDVFQCEVRNVNFEDPASACDSINAWVKNETRDMIDNLLSPDLIDGVLTRLVLVNAVYFKGLWKSRFQPENTKKRTFVAADGKSYQVPMLAQLSVFRCGSTSAPNDLWYNFIELPYHGESISMLIALPTESSTPLSAIIPHISTKTIDSWMSIMVPKRVQVILPKFTAVAQTDLKEPLKVLGITDMFDSSKANFAKITTGSENLHVSHILQKAKIEVSEDGTKASAATTAILIARSSPPWFIVDRPFLFFIRHNPTGAVLFMGQINKP
notes: serpinE2 (PN-1, protease nexin-1), human, recombinant, bought; With tPA it forms the serpin/protease complex that is seen as a band above uncomplexed serpinE2 on the western blot; also called PN-1; purified human serpinE2; source: bought: R&D
In the case of B1, the binding result is “binds”.

The values are drawn from publication PMC5347692, “Serpin E2 promotes breast cancer metastasis by remodeling the tumor matrix and polarizing tumor associated macrophages” (Oncotarget, 2016).
